Laboratory results reported in article PMC12071944, “Interaction Between Glucagon-like Peptide 1 and Its Analogs with Amyloid-β Peptide Affects Its Fibrillation and Cytotoxicity” (International Journal of Molecular Sciences, 2025).

Target: the molecule itself
Assay: dynamic light scattering; 5–83 µM GLP-1(7-37); 25 °C; 25 mM Tris-HCl, 140 mM NaCl, 4.9 mM KCl, 2.5 mM CaCl2, 1 mM MgCl2, pH 7.4; degree of multimerization MWRh/MWm

B1: glucagon-like peptide 1, residues 7-37 (peptide, UniProt P01275 98-128, looked up)
chain: HAEGTFTSDVSSYLEGQAAKEFIAWLVKGRG
notes: also called GLP-1(7-37); GLP-1
In the case of B1, the “stoichiometry N” value is reported as over 210.
